For this experiment, the target named is FANCD2 (human, UniProt Q9BXW9 1-1451). The experiment is described as follows: cryo-EM structure.
Chain of FANCD2 (Q9BXW9 whole entry): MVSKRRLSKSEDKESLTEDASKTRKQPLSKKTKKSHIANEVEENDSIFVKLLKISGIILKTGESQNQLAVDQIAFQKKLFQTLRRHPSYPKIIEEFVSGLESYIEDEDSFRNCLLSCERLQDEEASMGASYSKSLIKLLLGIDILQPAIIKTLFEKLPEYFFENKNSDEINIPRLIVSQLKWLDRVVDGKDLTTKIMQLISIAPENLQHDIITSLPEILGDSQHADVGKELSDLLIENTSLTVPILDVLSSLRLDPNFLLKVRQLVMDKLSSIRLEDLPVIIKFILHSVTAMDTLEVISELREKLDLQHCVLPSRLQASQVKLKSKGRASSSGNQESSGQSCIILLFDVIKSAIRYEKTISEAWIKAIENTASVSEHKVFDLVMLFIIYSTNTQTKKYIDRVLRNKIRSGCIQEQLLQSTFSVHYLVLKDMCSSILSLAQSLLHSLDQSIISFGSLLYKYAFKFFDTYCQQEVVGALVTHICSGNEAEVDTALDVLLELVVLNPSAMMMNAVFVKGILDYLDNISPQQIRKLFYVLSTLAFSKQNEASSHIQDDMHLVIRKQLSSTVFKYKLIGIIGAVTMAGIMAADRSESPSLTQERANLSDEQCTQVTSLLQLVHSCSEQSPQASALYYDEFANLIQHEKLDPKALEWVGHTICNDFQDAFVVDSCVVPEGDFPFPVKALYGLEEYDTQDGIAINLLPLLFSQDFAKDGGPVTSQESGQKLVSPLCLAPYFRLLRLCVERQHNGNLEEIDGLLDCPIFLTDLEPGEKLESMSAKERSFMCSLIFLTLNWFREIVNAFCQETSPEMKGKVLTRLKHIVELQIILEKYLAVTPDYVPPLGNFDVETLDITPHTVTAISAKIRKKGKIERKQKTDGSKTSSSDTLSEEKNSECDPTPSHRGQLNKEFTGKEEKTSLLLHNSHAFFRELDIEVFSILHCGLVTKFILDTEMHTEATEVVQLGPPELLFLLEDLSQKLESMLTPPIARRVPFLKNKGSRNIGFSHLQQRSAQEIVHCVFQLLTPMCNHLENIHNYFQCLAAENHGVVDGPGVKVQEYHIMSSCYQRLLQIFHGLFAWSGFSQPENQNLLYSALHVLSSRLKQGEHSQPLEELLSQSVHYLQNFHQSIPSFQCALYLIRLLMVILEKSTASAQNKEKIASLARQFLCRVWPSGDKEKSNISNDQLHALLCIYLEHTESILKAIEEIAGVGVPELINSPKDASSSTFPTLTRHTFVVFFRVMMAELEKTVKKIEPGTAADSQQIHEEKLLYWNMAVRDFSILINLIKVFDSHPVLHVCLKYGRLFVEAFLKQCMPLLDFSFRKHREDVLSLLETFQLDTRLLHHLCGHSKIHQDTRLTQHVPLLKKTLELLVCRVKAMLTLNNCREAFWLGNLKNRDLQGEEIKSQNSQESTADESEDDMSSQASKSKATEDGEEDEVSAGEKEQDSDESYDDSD

B1: ubiquitinated His6-V5-FANCI (natural protein)
chain 1: MDQKILSLAAEKTADKLQEFLQTLREGDLTNLLQNQAVKGKVAGALLRAIFKGSPCSEEAGTLRRRKIYTCCIQLVESGDLQKEIASEIIGLLMLEAHHFPGPLLVELANEFISAVREGSLVNGKSLELLPIILTALATKKENLAYGKGVLSGEECKKQLINTLCSGRWDQQYVIQLTSMFKDVPLTAEEVEFVVEKALSMFSKMNLQEIPPLVYQLLVLSSKGSRKSVLEGIIAFFSALDKQHNEEQSGDELLDVVTVPSGELRHVEGTIILHIVFAIKLDYELGRELVKHLKVGQQGDSNNNLSPFSIALLLSVTRIQRFQDQVLDLLKTSVVKSFKDLQLLQGSKFLQNLVPHRSYVSTMILEVVKNSVHSWDHVTQGLVELGFILMDSYGPKKVLDGKTIETSPSLSRMPNQHACKLGANILLETFKIHEMIRQEILEQVLNRVVTRASSPISHFLDLLSNIVMYAPLVLQSCSSKVTEAFDYLSFLPLQTVQRLLKAVQPLLKVSMSMRDCLILVLRKAMFANQLDARKSAVAGFLLLLKNFKVLGSLSSSQCSQSLSVSQVHVDVHSHYNSVANETFCLEIMDSLRRCLSQQADVRLMLYEGFYDVLRRNSQLANSVMQTLLSQLKQFYEPKPDLLPPLKLEACILTQGDKISLQEPLDYLLCCIQHCLAWYKNTVIPLQQGEEEEEEEEAFYEDLDDILESITNRMIKSELEDFELDKSADFSQSTSIGIKNNICAFLVMGVCEVLIEYNFSISSFSKNRFEDILSLFMCYKKLSDILNEKAGKAKTKMANKTSDSLLSMKFVSSLLTALFRDSIQSHQESLSVLRSSNEFMRYAVNVALQKVQQLKETGHVSGPDGQNPEKIFQNLCDITRVLLWRYTSIPTSVEESGKKEKGKSISLLCLEGLQKIFSAVQQFYQPKIQQFLRALDVTDKEGEEREDADVSVTQRTAFQIRQFQRSLLNLLSSQEEDFNSKEALLLVTVLTSLSKLLEPSSPQFVQMLSWTSKICKENSREDALFCKSLMNLLFSLHVSYKSPVILLRDLSQDIHGHLGDIDQDVEVEKTNHFAIVNLRTAAPTVCLLVLSQAEKVLEEVDWLITKLKGQVSQETLSEEASSQATLPNQPVEKAIIMQLGTLLTFFHELVQTALPSGSCVDTLLKDLCKMYTTLTALVRYYLQVCQSSGGIPKNMEKLVKLSGSHLTPLCYSFISYVQNKSKSLNYTGEKKEKPAAVATAMARVLRETKPIPNLIFAIEQYEKFLIHLSKKSKVNLMQHMKLSTSRDFKIKGNILDMVLREDGEDENEEGTASEHGGQNKEPAKKKRKK
chain 2: […]
Regarding B1, the binding result is given as “binds”.

Values taken from paper doi:10.1101/2022.04.07.487446 (bioRxiv, 2022).
